Target: T1, HscA (UniProt P0A6Z1 1-616)
T1 sequence (looked up): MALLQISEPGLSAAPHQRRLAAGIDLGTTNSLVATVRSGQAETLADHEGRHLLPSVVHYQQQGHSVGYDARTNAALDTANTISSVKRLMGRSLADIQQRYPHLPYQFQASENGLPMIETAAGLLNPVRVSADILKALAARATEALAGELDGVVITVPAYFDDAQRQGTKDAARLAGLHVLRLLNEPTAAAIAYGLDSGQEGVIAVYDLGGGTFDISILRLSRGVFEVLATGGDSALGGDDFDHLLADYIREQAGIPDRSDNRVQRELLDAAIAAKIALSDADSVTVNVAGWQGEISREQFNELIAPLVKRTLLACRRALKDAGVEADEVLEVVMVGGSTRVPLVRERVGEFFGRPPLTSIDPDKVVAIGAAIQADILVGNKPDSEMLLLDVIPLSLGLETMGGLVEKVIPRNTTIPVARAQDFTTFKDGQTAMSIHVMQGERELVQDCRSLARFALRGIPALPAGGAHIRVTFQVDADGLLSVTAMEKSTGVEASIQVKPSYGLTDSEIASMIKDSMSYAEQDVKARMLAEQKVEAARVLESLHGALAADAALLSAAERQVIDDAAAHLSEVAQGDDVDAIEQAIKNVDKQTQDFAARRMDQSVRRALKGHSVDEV
Test: cell-based or functional assay

B1: HscB (wild type) (natural protein, E. coli, UniProt P0A6L9 1-171, looked up)
chain: MDYFTLFGLPARYQLDTQALSLRFQDLQRQYHPDKFASGSQAEQLAAVQQSATINQAWQTLRHPLMRAEYLLSLHGFDLASEQHTVRDTAFLMEQLELREELDEIEQAKDEARLESFIKRVKKMFDTRHQLMVEQLDNETWDAAADTVRKLRFLDKLRSSAEQLEEKLLDF
  HscA ATPase activity, 23 °C, in the absence of IscU: maximal stimulation: 4.4 fold

Reference: PMC2627783 (Biochemistry, 2008)
